Columns and labels:
HeLa Kyoto [1] = experiment: solubility in G1/S (NP-40 vs SDS abundance) (log2 ratio); higher = more soluble; conditions: cell cycle stage: G1/S
HeLa Kyoto [2] = experiment: melting temperature (median over replicates), in situ; higher = more thermally stable
HeLa Kyoto [3] = experiment: solubility change mitosis vs G1/S (difference of NP-40 vs SDS log2 ratios) (log2 ratio difference); higher = more soluble in mitosis
HeLa Kyoto [4] = experiment: thermal stability score vs G1/S (z-score of summed log2 fold changes over temperatures); higher = more thermally stable than in G1/S
[5] = cell cycle stage: early G1 (4.5 h after nocodazole release)
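For melting temperature (median over replicates), in situ in this document: HeLa Kyoto cells synchronized by double thymidine or nocodazole block, proteins quantified by TMT10plex mass spectrometry, three independent biological replicates.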
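For solubility change mitosis vs G1/S (difference of NP-40 vs SDS log2 ratios) in this document: synchronized HeLa Kyoto cells (double thymidine block for G1/S, nocodazole release for mitosis), protein amounts in NP-40 versus SDS lysates quantified by mass spectrometry, three biological replicates.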
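For solubility in G1/S (NP-40 vs SDS abundance) in this document: HeLa Kyoto cells arrested at G1/S by double thymidine block, proteins quantified by TMT10plex mass spectrometry in mild NP-40 versus SDS extracts, three biological replicates.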
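For thermal stability score vs G1/S (z-score of summed log2 fold changes over temperatures) in this document: synchronized HeLa Kyoto cells, proteins quantified by TMT10plex mass spectrometry, three biological replicates, mitosis taken 0.5 h after nocodazole release, G1/S directly after double thymidine block.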

FXR2, sequence (chain, as listed by the source): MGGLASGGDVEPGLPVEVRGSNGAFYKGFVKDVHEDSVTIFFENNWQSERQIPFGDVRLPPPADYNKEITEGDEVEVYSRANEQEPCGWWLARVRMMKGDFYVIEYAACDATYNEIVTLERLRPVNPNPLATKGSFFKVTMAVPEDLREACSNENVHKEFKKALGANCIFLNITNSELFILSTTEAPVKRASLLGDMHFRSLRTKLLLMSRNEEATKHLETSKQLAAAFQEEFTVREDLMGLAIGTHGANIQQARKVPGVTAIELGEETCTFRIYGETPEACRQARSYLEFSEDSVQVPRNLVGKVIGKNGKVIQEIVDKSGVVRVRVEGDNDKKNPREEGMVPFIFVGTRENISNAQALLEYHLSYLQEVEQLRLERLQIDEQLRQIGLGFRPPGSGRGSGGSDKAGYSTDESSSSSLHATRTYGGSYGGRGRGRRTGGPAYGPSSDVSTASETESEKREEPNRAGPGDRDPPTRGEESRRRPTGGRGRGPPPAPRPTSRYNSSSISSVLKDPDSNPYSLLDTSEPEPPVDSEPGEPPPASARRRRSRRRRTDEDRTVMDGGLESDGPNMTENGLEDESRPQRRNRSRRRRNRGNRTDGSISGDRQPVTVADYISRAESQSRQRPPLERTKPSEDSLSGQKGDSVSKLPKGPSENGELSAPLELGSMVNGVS
STK38L, sequence (chain, as listed by the source): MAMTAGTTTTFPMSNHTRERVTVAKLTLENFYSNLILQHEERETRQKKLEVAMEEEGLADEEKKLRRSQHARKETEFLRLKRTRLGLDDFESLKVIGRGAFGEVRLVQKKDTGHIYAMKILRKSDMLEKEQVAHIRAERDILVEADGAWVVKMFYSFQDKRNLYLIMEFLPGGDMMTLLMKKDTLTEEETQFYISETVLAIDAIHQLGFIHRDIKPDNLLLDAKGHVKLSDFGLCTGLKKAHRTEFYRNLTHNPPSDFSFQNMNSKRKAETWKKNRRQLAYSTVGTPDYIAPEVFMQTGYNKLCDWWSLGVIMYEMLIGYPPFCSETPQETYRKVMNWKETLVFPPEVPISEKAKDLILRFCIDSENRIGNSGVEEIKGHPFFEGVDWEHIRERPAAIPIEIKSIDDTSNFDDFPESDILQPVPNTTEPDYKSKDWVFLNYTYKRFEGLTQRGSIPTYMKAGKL
PPP2R5D, sequence (chain, as listed by the source): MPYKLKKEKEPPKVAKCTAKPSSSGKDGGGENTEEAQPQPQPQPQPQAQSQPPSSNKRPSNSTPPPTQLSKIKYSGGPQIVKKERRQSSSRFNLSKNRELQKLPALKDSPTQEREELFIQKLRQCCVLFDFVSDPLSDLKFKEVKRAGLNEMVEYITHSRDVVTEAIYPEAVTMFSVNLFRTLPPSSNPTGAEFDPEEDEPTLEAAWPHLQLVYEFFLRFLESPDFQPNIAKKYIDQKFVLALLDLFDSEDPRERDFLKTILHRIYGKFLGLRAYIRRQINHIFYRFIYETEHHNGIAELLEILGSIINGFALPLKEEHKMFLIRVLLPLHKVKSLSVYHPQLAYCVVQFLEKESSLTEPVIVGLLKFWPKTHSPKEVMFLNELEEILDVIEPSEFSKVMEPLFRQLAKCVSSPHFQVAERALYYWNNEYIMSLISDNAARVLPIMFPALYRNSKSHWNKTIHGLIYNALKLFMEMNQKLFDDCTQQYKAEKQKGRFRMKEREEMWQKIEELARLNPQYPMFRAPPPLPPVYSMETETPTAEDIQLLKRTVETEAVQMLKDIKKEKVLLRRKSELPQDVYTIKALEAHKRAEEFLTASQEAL
PPP2R5E, sequence (chain, as listed by the source): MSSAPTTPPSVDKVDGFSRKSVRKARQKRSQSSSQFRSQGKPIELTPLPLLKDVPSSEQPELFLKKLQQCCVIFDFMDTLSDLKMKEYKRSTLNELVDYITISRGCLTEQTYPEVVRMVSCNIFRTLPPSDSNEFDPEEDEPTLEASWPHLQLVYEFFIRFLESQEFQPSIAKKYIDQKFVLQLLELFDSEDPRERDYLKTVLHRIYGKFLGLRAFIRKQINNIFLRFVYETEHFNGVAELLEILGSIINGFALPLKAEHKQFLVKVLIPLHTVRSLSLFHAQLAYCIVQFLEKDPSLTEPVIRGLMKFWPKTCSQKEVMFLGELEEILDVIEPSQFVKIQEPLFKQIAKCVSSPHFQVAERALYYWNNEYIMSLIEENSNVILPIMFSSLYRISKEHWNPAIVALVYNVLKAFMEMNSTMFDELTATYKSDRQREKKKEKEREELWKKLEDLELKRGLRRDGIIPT

Substance	solubility in G1/S (log2) (HeLa Kyoto [1])	melting temperature (HeLa Kyoto [2]; cell cycle stage: G1/S)	melting temperature (HeLa Kyoto [2]; cell cycle stage: mitosis)	solubility change mitosis (log2) (HeLa Kyoto [3])	thermal stability score (HeLa Kyoto [4]; [5])	thermal stability score (HeLa Kyoto [4]; cell cycle stage: mitosis)
MAALEEEFTLSSVVLSAGPEGLLGVEQSDKTDQFLVTDSGRTVILYKVSDQKPLGSWSVKQGQIITCPAVCNFQTGEYVVVHDNKVLRIWNNEDVNLDKVFKATLSAEVYRILSVQGTEPLVLFKEGAVRGLEALLADPQQKIETVISDEEVIKWTKFFVVFRHPVLIFITEKHGNYFAYVQMFNSRILTKYTLLLGQDENSVIKSFTASVDRKFISLMSLSSDGCIYETLIPIRPADPEKNQSLVKSLLLKAVVSGNARNGVALTALDQDHVAVLGSPLAASKECLSVWNIKFQTLQTSKELPQGTSGQLWYYGEHLFMLHGKSLTVIPYKCEVSSLAGALGKLKHSQDPGTHVVSHFVNWETPQGCGLGFQNSEQSRRILRRRKIEVSLQPEVPPSKQLLSTIMKDSEKHIEVEVRKFLALKQTPDFHTVIGDTVTGLLERCKAEPSFYPRNCLMQLIQTHVLSYSLCPDLMEIALKKKDVQLLQLCLQQFPDIPESVTCACLKIFLSIGDDSLQETDVNMESVFDYSINSVHDEKMEEQTEILQNGFNPEEDKCNNCDQELNKKPQDETKESTSCPVVQKRAALLNAILHSAYSETFLLPHLKDIPAQHITLFLKYLYFLYLKCSENATMTLPGIHPPTLNQIMDWICLLLDANFTVVVMMPEAKRLLINLYKLVKSQISVYSELNKIEVSFRELQKLNQEKNNRGLYSIEVLELF [NOL11]	-0.963	55.1 °C	52.9 °C	0.471	-2.5	-6.66
ARID1B	-0.143	48.8 °C	50.2 °C	0.0332	0.573	1.11
MSGGKYVDSEGHLYTVPIREQGNIYKPNNKAMADELSEKQVYDAHTKEIDLVNRDPKHLNDDVVKIDFEDVIAEPEGTHSFDGIWKASFTTFTVTKYWFYRLLSALFGIPMALIWGIYFAILSFLHIWAVVPCIKSFLIEIQCISRVYSIYVHTVCDPLFEAVGKIFSNVRINLQKEI [CAV1]	-0.297	57.3 °C	54.6 °C	-0.0544	-2.45	-3.05
HTT	-0.145	50.6 °C	50.7 °C	-0.0881	-0.714	-1.14
PPP2R5E	-0.065	49.9 °C	49.7 °C	-0.171	0.446	0.409
MRPLPGALGVAAAAALWLLLLLLPRTRADEHEHTYQDKEEVVLWMNTVGPYHNRQETYKYFSLPFCVGSKKSISHYHETLGEALQGVELEFSGLDIKFKDDVMPATYCEIDLDKEKRDAFVYAIKNHYWYQMYIDDLPIWGIVGEADENGEDYYLWTYKKLEIGFNGNRIVDVNLTSEGKVKLVPNTKIQMSYSVKWKKSDVKFEDRFDKYLDPSFFQHRIHWFSIFNSFMMVIFLVGLVSMILMRTLRKDYARYSKEEEMDDMDRDLGDEYGWKQVHGDVFRPSSHPLIFSSLIGSGCQIFAVSLIVIIVAMIEDLYTERGSMLSTAIFVYAATSPVNGYFGGSLYARQGGRRWIKQMFIGAFLIPAMVCGTAFFINFIAIYYHASRAIPFGTMVAVCCICFFVILPLNLVGTILGRNLSGQPNFPCRVNAVPRPIPEKKWFMEPAVIVCLGGILPFGSIFIEMYFIFTSFWAYKIYYVYGFMMLVLVILCIVTVCVTIVCTYFLLNAEDYRWQWTSFLSAASTAIYVYMYSFYYYFFKTKMYGLFQTSFYFGYMAVFSTALGIMCGAIGYMGTSAFVRKIYTNVKID [TM9SF3]	-0.181	53.5 °C	53.4 °C	-0.173	2.92	5.14
STK38L	-0.0449	50.2 °C	49.3 °C	-0.074	0.62	1.53
PPP2R5D	-0.0693	48.2 °C	48.4 °C	0.0185	1.54	3.42
MIIPSLEELDSLKYSDLQNLAKSLGLRANLRATKLLKALKGYIKHEARKGNENQDESQTSASSCDETEIQISNQEEAERQPLGHVTKTRRRCKTVRVDPDSQQNHSEIKISNPTEFQNHEKQESQDLRATAKVPSPPDEHQEAENAVSSGNRDSKVPSEGKKSLYTDESSKPGKNKRTAITTPNFKKLHEAHFKEMESIDQYIERKKKHFEEHNSMNELKQQPINKGGVRTPVPPRGRLSVASTPISQRRSQGRSCGPASQSTLGLKGSLKRSAISAAKTGVRFSAATKDNEHKRSLTKTPARKSAHVTVSGGTPKGEAVLGTHKLKTITGNSAAVITPFKLTTEATQTPVSNKKPVFDLKASLSRPLNYEPHKGKLKPWGQSKENNYLNQHVNRINFYKKTYKQPHLQTKEEQRKKREQERKEKKAKVLGMRRGLILAED [NUSAP1]	-0.327	54.7 °C	54.6 °C	0.535	1.75	-5.46
MVHCSCVLFRKYGNFIDKLRLFTRGGSGGMGYPRLGGEGGKGGDVWVVAQNRMTLKQLKDRYPRKRFVAGVGANSKISALKGSKGKDCEIPVPVGISVTDENGKIIGELNKENDRILVAQGGLGGKLLTNFLPLKGQKRIIHLDLKLIADVGLVGFPNAGKSSLLSCVSHAKPAIADYAFTTLKPELGKIMYSDFKQISVADLPGLIEGAHMNKGMGHKFLKHIERTRQLLFVVDISGFQLSSHTQYRTAFETIILLTKELELYKEELQTKPALLAVNKMDLPDAQDKFHELMSQLQNPKDFLHLFEKNMIPERTVEFQHIIPISAVTGEGIEELKNCIRKSLDEQANQENDALHKKQLLNLWISDTMSSTEPPSKHAVTTSKMDII [GTPBP10]	0.217	49.4 °C	50.8 °C	0.0276	-0.944	0.176
MANRTVKDAHSIHGTNPQYLVEKIIRTRIYESKYWKEECFGLTAELVVDKAMELRFVGGVYGGNIKPTPFLCLTLKMLQIQPEKDIIVEFIKNEDFKYVRMLGALYMRLTGTAIDCYKYLEPLYNDYRKIKSQNRNGEFELMHVDEFIDELLHSERVCDIILPRLQKRYVLEEAEQLEPRVSALEEDMDDVESSEEEEEEDEKLERVPSPDHRRRSYRDLDKPRRSPTLRYRRSRSRSPRRRSRSPKRRSPSPRRERHRSKSPRRHRSRSRDRRHRSRSKSPGHHRSHRHRSHSKSPERSKKSHKKSRRGNE [PRPF38A]	-1.32	49 °C	48.6 °C	0.372	-0.0926	1.13
MGDSHVDTSSTVSEAVAEEVSLFSMTDMILFSLIVGLLTYWFLFRKKKEEVPEFTKIQTLTSSVRESSFVEKMKKTGRNIIVFYGSQTGTAEEFANRLSKDAHRYGMRGMSADPEEYDLADLSSLPEIDNALVVFCMATYGEGDPTDNAQDFYDWLQETDVDLSGVKFAVFGLGNKTYEHFNAMGKYVDKRLEQLGAQRIFELGLGDDDGNLEEDFITWREQFWPAVCEHFGVEATGEESSIRQYELVVHTDIDAAKVYMGEMGRLKSYENQKPPFDAKNPFLAAVTTNRKLNQGTERHLMHLELDISDSKIRYESGDHVAVYPANDSALVNQLGKILGADLDVVMSLNNLDEESNKKHPFPCPTSYRTALTYYLDITNPPRTNVLYELAQYASEPSEQELLRKMASSSGEGKELYLSWVVEARRHILAILQDCPSLRPPIDHLCELLPRLQARYYSIASSSKVHPNSVHICAVVVEYETKAGRINKGVATNWLRAKEPAGENGGRALVPMFVRKSQFRLPFKATTPVIMVGPGTGVAPFIGFIQERAWLRQQGKEVGETLLYYGCRRSDEDYLYREELAQFHRDGALTQLNVAFSREQSHKVYVQHLLKQDREHLWKLIEGGAHIYVCGDARNMARDVQNTFYDIVAELGAMEHAQAVDYIKKLMTKGRYSLDVWS [POR]	0.0892	51.6 °C	51.1 °C	-0.125	4.17	5.83
MFSD10	-0.0104	57.2 °C	57.1 °C	-0.219	-2.75	-4.59
MLRTTRGPGLGPPLLQAALGLGRAGWHWPAGRAASGGRGRAWLQPTGRETGVQVYNSLTGRKEPLIVAHAEAASWYSCGPTVYDHAHLGHACSYVRFDIIRRILTKVFGCSIVMVMGITDVDDKIIKRANEMNISPASLASLYEEDFKQDMAALKVLPPTVYLRVTENIPQIISFIEGIIARGNAYSTAKGNVYFDLKSRGDKYGKLVGVVPGPVGEPADSDKRHASDFALWKAAKPQEVFWASPWGPGRPGWHIECSAIASMVFGSQLDIHSGGIDLAFPHHENEIAQCEVFHQCEQWGNYFLHSGHLHAKGKEEKMSKSLKNYITIKDFLKTFSPDVFRFFCLRSSYRSAIDYSDSAMLQAQQLLLGLGSFLEDARAYMKGQLACGSVREAMLWERLSSTKRAVKAALADDFDTPRVVDAILGLAHHGNGQLRASLKEPEGPRSPAVFGAIISYFEQFFETVGISLANQQYVSGDGSEATLHGVVDELVRFRQKVRQFALAMPEATGDARRQQLLERQPLLEACDTLRRGLTAHGINIKDRSSTTSTWELLDQRTKDQKSAG [CARS2]	0.0252	55.4 °C	54.1 °C	-0.0653	0.291	-0.0596
MRPVRLMKVFVTRRIPAEGRVALARAADCEVEQWDSDEPIPAKELERGVAGAHGLLCLLSDHVDKRILDAAGANLKVISTMSVGIDHLALDEIKKRGIRVGYTPDVLTDTTAELAVSLLLTTCRRLPEAIEEVKNGGWTSWKPLWLCGYGLTQSTVGIIGLGRIGQAIARRLKPFGVQRFLYTGRQPRPEEAAEFQAEFVSTPELAAQSDFIVVACSLTPATEGLCNKDFFQKMKETAVFINISRGDVVNQDDLYQALASGKIAAAGLDVTSPEPLPTNHPLLTLKNCVILPHIGSATHRTRNTMSLLAANNLLAGLRGEPMPSELKL [GRHPR]	0.0329	54.3 °C	55 °C	-0.204	0.108	0.371
AHNAK2	0.073	53 °C	53.5 °C	-0.0597	0.749	3.16
MVEDELALFDKSINEFWNKFKSTDTSCQMAGLRDTYKDSIKAFAEKLSVKLKEEERMVEMFLEYQNQISRQNKLIQEKKDNLLKLIAEVKGKKQELEVLTANIQDLKEEYSRKKETISTANKANAERLKRLQKSADLYKDRLGLEIRKIYGEKLQFIFTNIDPKNPESPFMFSLHLNEARDYEVSDSAPHLEGLAEFQENVRKTNNFSAFLANVRKAFTATVYN [SPC25]	0.585	49.5 °C	49.6 °C	0.0937	-0.881	-0.275
MAWRGWAQRGWGCGQAWGASVGGRSCEELTAVLTPPQLLGRRFNFFIQQKCGFRKAPRKVEPRRSDPGTSGEAYKRSALIPPVEETVFYPSPYPIRSLIKPLFFTVGFTGCAFGSAAIWQYESLKSRVQSYFDGIKADWLDSIRPQKEGDFRKEINKWWNNLSDGQRTVTGIIAANVLVFCLWRVPSLQRTMIRYFTSNPASKVLCSPMLLSTFSHFSLFHMAANMYVLWSFSSSIVNILGQEQFMAVYLSAGVISNFVSYVGKVATGRYGPSLGASGAIMTVLAAVCTKIPEGRLAIIFLPMFTFTAGNALKAIIAMDTAGMILGWKFFDHAAHLGGALFGIWYVTYGHELIWKNREPLVKIWHEIRTNGPKKGGGSK [PARL]	-0.0323	54.9 °C	55.8 °C	-0.267	-0.187	-2.36
MGCTLSAEDKAAVERSKMIDRNLREDGEKAAKEVKLLLLGAGESGKSTIVKQMKIIHEDGYSEDECKQYKVVVYSNTIQSIIAIIRAMGRLKIDFGEAARADDARQLFVLAGSAEEGVMTPELAGVIKRLWRDGGVQACFSRSREYQLNDSASYYLNDLDRISQSNYIPTQQDVLRTRVKTTGIVETHFTFKDLYFKMFDVGGQRSERKKWIHCFEGVTAIIFCVALSDYDLVLAEDEEMNRMHESMKLFDSICNNKWFTETSIILFLNKKDLFEEKIKRSPLTICYPEYTGSNTYEEAAAYIQCQFEDLNRRKDTKEIYTHFTCATDTKNVQFVFDAVTDVIIKNNLKECGLY [GNAI3]	-0.638	53.5 °C	54.2 °C	-0.175	0.761	0.823
FXR2	-1.13	52.6 °C	51.7 °C	0.38	-1.1	-0.108

Reference: the supplement of paper PMC5998384
